From patent US20240124586A1 (WUXI BIOLOGICS IRELAND, published 2024)
Substitutions are numbered along the chain they refer to. Blank lines part the entries; values can stand above or below the binder they belong to.

How the values were obtained:
[1] = molecular target: T1, human PD-1 on engineered CHO-S cells (W305-CHO-S.hPro1.C6) (human, UniProt Q15116 25-288); assay: FACS on human PD-1 engineered cells
T1 construct: whole, on cells; also called human PD-1 engineered cells; PD-1+ cells
Description: Engineered human PD-1 expressing cells W305-CHO-S.hPro1.C6 were seeded at 1×10⁵ cells/well in U-bottom 96-well plates (COSTAR 3799). Antibodies with 3.16-fold titration in 1% BSA DPBS from 200 nM to 0.002 nM were added to the cells. The plates were incubated at 4° C. for 1 hour. After wash, […] 1:125 diluted PE-labeled goat anti-human antibody (Jackson 109-115-098) was added to each well and the plates were incubated at 4° C. for 1 hour. The binding of the antibodies onto the cells was tested by flow cytometry and the mean fluorescence intensity (MFI) was analyzed by FlowJo.

[2] = molecular target: T2, human CD3 on CD3+ Jurkat cells (human, UniProt P07766 23-207; P09693 23-182; P04234 22-171); assay: FACS on CD3+ Jurkat cells, supernatant, 0.4 nM
T2 construct: whole, on cells; also called CD3 positive Jurkat cells
T2 sequence (P07766 23-207, chain 1 of 3): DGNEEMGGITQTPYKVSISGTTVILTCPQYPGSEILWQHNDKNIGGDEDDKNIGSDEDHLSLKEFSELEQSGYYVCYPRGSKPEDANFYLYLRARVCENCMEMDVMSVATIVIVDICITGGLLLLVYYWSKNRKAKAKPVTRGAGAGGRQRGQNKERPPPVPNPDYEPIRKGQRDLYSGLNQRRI
T2 sequence (P09693 23-182, chain 2 of 3): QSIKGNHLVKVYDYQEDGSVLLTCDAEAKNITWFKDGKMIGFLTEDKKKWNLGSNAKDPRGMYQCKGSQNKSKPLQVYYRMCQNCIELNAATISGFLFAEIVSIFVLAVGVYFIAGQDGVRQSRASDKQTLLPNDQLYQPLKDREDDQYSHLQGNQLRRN
T2 sequence (P04234 22-171, chain 3 of 3): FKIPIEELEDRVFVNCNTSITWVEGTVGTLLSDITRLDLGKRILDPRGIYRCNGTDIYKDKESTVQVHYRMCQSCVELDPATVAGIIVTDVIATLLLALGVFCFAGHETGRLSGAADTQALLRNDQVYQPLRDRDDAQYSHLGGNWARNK
Description: (§1) To confirm whether the expressed proteins had correct folding and retained the original function, we tested their binding on CD3 positive Jurkat cells. FACS bindings of all the samples were carried out at three different concentrations: […].

[3] = molecular target: T2, human CD3 on CD3+ Jurkat cells; assay: FACS on CD3+ Jurkat cells, supernatant, 5.0 nM
Description: as §1

[4] = molecular target: T2, human CD3 on CD3+ Jurkat cells; assay: FACS on CD3+ Jurkat cells, supernatant, 0.032 nM
Description: as §1

[5] = molecular target: T3, cynomolgus CTLA-4 on engineered 293F cells (W316-293F.cynoPro1.F1.Pool) (cynomolgus); assay: FACS binding to cynomolgus CTLA-4 engineered cells
T3 construct: whole, on cells; also called cynomolgus CTLA-4 engineered cells
Description: 4-fold titrated Abs with 1% BSA DPBS from 40 μg/ml to 0.00004 μg/ml were added to the cells. Plates were incubated at 4° C. for 1 hour. After wash, […] 1:150 diluted PE-labeled goat anti-human antibody (Jackson 109-115-098) was added to each well and the plates were incubated at 4° C. for 1 hour. The binding of the antibodies onto the cells was tested by flow cytometry and the mean fluorescence intensity (MFI) was analyzed by FlowJo.

[6] = molecular target: T4, human CD19 on CD19+ B cell lines (Ramos, Raji) (human, UniProt P15391 20-556); assay: cell-based or functional assay
T4 sequence (looked up): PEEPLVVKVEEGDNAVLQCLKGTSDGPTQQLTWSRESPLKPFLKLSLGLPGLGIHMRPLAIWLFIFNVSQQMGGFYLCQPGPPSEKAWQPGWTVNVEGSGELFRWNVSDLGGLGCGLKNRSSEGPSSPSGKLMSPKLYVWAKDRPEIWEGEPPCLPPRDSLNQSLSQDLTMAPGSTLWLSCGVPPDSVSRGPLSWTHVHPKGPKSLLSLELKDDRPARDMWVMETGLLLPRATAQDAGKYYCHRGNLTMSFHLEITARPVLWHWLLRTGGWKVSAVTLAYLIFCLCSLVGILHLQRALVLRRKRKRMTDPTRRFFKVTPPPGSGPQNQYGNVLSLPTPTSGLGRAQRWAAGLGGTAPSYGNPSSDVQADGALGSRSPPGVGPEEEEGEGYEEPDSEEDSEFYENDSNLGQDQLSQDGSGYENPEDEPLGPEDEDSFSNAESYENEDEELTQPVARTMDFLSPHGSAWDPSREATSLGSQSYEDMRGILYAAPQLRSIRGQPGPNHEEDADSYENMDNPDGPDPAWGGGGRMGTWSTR

[7] = molecular target: T2, human CD3 on CD3+ Jurkat cells; assay: FACS on CD3+ Jurkat cells, Expi293 supernatant

T1 sequence (Q15116 25-288, change not shown): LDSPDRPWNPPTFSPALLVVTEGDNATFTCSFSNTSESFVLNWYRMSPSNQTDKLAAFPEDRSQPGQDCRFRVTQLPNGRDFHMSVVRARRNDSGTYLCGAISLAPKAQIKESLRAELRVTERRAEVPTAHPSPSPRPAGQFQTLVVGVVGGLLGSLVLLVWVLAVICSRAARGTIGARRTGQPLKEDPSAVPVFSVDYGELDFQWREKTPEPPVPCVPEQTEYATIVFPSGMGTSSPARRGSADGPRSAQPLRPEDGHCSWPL

EC50 [1]: 2.19 nM
B1: U6T1.G19.IgG4, bispecific anti-PD-1 x CTLA-4 (bispecific antibody)
heavy: not shown
light 1: SYELTQPLSVSVALGQTARITCGGDNIGNKDVHWYQQKPGQAPVLVIYRDSNRPSGIPEGFSGSNSGNTATLTISRAQAGDEADYYCQVWDSIWVFGGGTKLTVLGQPKAAPSVTLFPPSSEELQANKATLVCLISDFYPGAVTVAWKADSSPVKAGVETTTPSKQSNNKYAASSYLSLTPEQWKSHKSYSCQVTHEGSTVEKTVAPTECS
light 2: not shown
notes: Symmetric tetravalent format G19; also called U6T1 in G19 format

MFI at 0.4 nM [2]: 1210 MFI
MFI at 5.0 nM [3]: 5440 MFI
MFI at 0.032 nM [4]: 168 MFI
B3: T3-Design_4 (IgG1), crossed orientation (antibody)
heavy: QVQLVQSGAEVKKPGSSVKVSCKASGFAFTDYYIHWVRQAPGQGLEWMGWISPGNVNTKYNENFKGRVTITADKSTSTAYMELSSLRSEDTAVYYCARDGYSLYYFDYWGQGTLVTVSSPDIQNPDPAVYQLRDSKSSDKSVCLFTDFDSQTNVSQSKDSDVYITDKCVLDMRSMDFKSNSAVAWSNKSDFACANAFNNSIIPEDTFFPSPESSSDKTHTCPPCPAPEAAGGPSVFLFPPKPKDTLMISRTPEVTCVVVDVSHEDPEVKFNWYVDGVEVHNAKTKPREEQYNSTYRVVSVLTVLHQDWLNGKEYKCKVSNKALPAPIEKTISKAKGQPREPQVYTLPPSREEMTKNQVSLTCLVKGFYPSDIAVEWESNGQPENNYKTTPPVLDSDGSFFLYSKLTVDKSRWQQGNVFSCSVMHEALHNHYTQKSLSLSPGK
light: DIVMTQSPDSLAVSLGERATINCKSSQSLLNSRTRKNYLAWYQQKPGQPPKLLIYWASTRQSGVPDRFSGSGSGTDFTLTISSLQAEDVAVYYCTQSHTLRTFGGGTKVEIKLEDLKNVFPPEVAVFEPSEAEISHTQKATLVCLATGFYPDHVELSWWVNGKEVHSGVCTDPQPLKEQPALNDSRYALSSRLRVSATFWQNPRNHFRCQVQFYGLSENDEWTQDRAKPVTQIVSAEAWGRA
notes: Monospecific IgG-like TCR chimera; tested as supernatant

EC50 [1]: 7.93 nM
B4: T1U6.G19.IgG4, bispecific anti-CTLA-4 x PD-1 (bispecific antibody)
heavy: not shown
light 1: not shown
light 2: SYELTQPLSVSVALGQTARITCGGDNIGNKDVHWYQQKPGQAPVLVIYRDSNRPSGIPEGFSGSNSGNTATLTISRAQAGDEADYYCQVWDSIWVFGGGTKLTVLPDIQNPDPAVYQLRDSKSSDKSVCLFTDFDSQTQVSQSKDSDVYITDKCVLDMRSMDFKSNSAVAWSQKSDFACANAFQNSIIPEDTFFPSPESS
notes: Symmetric tetravalent format G19; T1 (ipilimumab) on top, U6 (W3055_1.153.7) as TCR-chimeric Fab at the C-terminus

EC50 (read off the curve) [7]: ~0.5 nM
B13: T3-Design_2-QSKE (IgG1) (antibody)
heavy: not shown
light: DIVMTQSPDSLAVSLGERATINCKSSQSLLNSRTRKNYLAWYQQKPGQPPKLLIYWASTRQSGVPDRFSGSGSGTDFTLTISSLQAEDVAVYYCTQSHTLRTFGGGTKVEIKPDIQNPDPAVYQLRDSKSSDKSVCLFTDFDSQTQVSQSKDSDVYITDKCVLDMRSMDFKSNSAVAWSSKSDFACANAFKNSIIPEDTFFPSPESS
notes: De-glycosylation mutant of Design_2; tested as supernatant

EC50 (read off the curve) [7]: ~0.5 nM
B16: T3-Design_2-ASKE (IgG1) (antibody)
heavy: not shown
light: B13 light with Q146A
notes: as for B13

EC50 (read off the curve) [7]: ~0.4 nM
B17: T3-Design_2-QQQQQ (IgG1) (antibody)
heavy: not shown
light: B13 light with N173Q, S180Q, K191Q
notes: as for B13

EC50 (read off the curve) [7]: ~0.5 nM
B18: T3-Design_2-AAAA (IgG1) (antibody)
heavy: not shown
light: B13 light with Q146A, S180A, K191A
notes: as for B13

Continued, binder first:

B2: T3-Design_3 (IgG1), crossed orientation (antibody)
heavy: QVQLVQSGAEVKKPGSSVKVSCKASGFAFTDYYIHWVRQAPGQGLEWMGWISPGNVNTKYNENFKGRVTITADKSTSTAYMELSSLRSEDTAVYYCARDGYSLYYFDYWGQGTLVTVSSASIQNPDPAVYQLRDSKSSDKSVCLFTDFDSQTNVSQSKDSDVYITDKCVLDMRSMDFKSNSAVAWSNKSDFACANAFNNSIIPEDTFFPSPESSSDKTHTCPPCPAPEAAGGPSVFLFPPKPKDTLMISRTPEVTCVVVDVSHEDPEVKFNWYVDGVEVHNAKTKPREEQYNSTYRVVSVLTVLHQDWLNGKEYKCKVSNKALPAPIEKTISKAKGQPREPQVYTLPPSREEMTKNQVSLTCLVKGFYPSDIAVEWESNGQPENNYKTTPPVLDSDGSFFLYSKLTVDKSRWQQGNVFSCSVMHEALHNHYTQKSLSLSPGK
light: B3 light
notes: as for B3
MFI at 0.4 nM [2]: 982 MFI
MFI at 5.0 nM [3]: 5090 MFI
MFI at 0.032 nM [4]: 137 MFI

B5: T3-Design_7 (IgG1), crossed orientation (antibody)
heavy: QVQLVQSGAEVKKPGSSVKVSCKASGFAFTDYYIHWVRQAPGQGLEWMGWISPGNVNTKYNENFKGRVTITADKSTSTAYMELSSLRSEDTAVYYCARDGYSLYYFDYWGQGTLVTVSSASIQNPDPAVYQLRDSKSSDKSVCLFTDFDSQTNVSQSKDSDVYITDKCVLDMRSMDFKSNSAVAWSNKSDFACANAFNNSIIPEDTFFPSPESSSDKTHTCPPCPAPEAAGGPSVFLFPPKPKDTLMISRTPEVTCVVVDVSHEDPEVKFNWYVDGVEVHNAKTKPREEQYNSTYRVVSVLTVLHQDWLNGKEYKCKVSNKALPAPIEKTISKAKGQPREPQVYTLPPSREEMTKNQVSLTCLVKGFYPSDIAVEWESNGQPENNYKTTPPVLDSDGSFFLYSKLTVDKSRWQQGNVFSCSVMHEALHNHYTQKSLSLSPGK
light: DIVMTQSPDSLAVSLGERATINCKSSQSLLNSRTRKNYLAWYQQKPGQPPKLLIYWASTRQSGVPDRFSGSGSGTDFTLTISSLQAEDVAVYYCTQSHTLRTFGGGTKVEIKLEDLKNVFPPEVAVFEPSEAEISHTQKATLVCLATGFYPDHVELSWWVNGKEVHSGVCTDPQPLKEQPALNDSRYALSSRLRVSATFWQNPRNHFRCQVQFYPSNQIVSAEAWGRA
notes: as for B3
MFI at 0.4 nM [2]: 1930 MFI
MFI at 5.0 nM [3]: 6320 MFI
MFI at 0.032 nM [4]: 259 MFI

B6: T3-Design_8 (IgG1), crossed orientation (antibody)
heavy: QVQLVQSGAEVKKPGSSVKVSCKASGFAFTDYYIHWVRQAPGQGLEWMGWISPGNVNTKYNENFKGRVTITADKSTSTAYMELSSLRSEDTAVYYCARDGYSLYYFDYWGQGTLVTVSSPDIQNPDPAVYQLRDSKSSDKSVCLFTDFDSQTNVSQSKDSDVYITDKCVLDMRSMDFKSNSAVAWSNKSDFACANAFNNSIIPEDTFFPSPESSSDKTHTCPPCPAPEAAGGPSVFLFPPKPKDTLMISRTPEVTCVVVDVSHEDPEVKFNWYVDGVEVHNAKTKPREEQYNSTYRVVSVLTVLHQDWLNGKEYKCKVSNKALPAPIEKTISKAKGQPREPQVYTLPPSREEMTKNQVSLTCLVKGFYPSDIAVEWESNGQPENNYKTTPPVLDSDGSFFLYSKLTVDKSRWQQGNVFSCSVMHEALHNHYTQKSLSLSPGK
light: B5 light
notes: as for B3
MFI at 0.4 nM [2]: 1830 MFI
MFI at 5.0 nM [3]: 6410 MFI
MFI at 0.032 nM [4]: 243 MFI

B7: WBP316-BMK1.IgG4 (antibody, V domains shown)
VH: QVQLVESGGGVVQPGRSLRLSCAASGFTFSSYTMHWVRQAPGKGLEWVTFISYDGNNKYYADSVKGRFTISRDNSKNTLYLQMNSLRAEDTAIYYCARTGWLGPFDYWGQGTLVTVSS
VL: not shown
notes: also called WBP316-BMK1 (Ipilimumab)
EC50 [5]: 0.674 nM
Top(MFI) [5]: 8050 MFI

B8: E17-Design_2-QQQQ (IgG1), bispecific anti-CD3 x CD19 (bispecific antibody)
heavy 1: not shown
light 1: B13 light with S180Q, K191Q
heavy 2: QMQLVQSGPEVKKPGTSVKVSCKASGYAFTSYNMYWVRQARGQRLEWIGYIDPYNGDTTYNQKFKGRVTITRDMSTSTAYMELSSLRSEDTAVYYCLTTAYAMDYWGQGTLVTVSSASTKGPSVFPLAPSSKSTSGGTAALGCLVKDYFPEPVTVSWNSGALTSGVHTFPAVLQSSGLYSLSSVVTVPSSSLGTQTYICNVNHKPSNTKVDKRVEPKSCDKTHTCPPCPAPEAAGGPSVFLFPPKPKDTLMISRTPEVTCVVVDVSHEDPEVKFNWYVDGVEVHNAKTKPREEQYNSTYRVVSVLTVLHQDWLNGKEYKCKVSNKALPAPIEKTISKAKGQPREPQVCTLPPSREEMTKNQVSLSCAVKGFYPSDIAVEWESNGQPENNYKTTPPVLDSDGSFFLVSKLTVDKSRWQQGNVFSCSVMHEALHNHYTQKSLSLSPGK
light 2: DIQLTQSPSFLSASVGDRVTITCSASSTVNYMHWYQQKPGKAPKLLIYSTSNLASGVPSRFSGSGSGTEFTLTISSLQPEDFATYYCHQWSSYPYTFGQGTKLEIKRTVAAPSVFIFPPSDEQLKSGTASVVCLLNNFYPREAKVQWKVDNALQSGNSQESVTEQDSKDSTYSLSSTLTLSKADYEKHKVYACEVTHQGLSSPVTKSFNRGEC
EC50 of T-cell directed killing of malignant B cells (PI-positive Raji cells) [6]: 0.624 nM

B9: T3-Design_6a (IgG1), normal orientation (antibody)
heavy: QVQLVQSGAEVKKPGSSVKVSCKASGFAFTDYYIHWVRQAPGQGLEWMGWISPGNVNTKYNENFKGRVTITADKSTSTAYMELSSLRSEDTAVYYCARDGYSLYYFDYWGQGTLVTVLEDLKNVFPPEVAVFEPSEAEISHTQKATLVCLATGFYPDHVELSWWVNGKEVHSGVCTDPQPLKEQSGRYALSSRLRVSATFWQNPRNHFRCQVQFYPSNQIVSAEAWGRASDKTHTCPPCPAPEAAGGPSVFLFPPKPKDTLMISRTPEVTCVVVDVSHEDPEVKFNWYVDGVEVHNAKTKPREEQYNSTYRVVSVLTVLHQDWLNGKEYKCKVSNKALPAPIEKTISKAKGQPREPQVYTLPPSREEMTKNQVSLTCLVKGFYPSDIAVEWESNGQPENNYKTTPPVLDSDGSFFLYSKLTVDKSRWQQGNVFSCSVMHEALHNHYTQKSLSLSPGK
light: B13 light with Q146N, S180N, K191N
notes: as for B3
MFI at 0.4 nM [2]: 2820 MFI
MFI at 5.0 nM [3]: 5790 MFI
MFI at 0.032 nM [4]: 405 MFI

B10: T3-Design_2-QQQQ (IgG1) (antibody)
heavy: not shown
light: B13 light with S180Q, K191Q
notes: as for B13
EC50 (read off the curve) [7]: ~0.6 nM

B11: T3-Design_1 (IgG1), normal orientation (antibody)
heavy: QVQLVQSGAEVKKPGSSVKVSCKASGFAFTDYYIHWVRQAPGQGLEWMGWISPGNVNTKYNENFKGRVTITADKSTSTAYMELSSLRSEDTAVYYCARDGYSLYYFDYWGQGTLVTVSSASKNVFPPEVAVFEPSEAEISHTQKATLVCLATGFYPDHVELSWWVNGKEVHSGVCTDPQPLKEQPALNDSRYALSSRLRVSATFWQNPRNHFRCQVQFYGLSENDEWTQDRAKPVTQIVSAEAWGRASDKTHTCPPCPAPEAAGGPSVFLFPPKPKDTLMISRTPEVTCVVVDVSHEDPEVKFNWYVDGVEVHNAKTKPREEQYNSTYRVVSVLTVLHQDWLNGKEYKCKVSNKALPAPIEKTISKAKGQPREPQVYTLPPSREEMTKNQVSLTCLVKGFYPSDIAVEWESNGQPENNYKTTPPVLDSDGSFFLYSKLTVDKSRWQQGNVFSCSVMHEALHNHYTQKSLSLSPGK
light: B13 light with P113R, D114T, I115V, Q116A, N117A, Q146N, S180N, K191N
notes: Monospecific IgG-like chimera of T3 variable domains with TCR CBeta/CAlpha; tested as Expi293 supernatant
MFI at 0.4 nM [2]: 2190 MFI
MFI at 5.0 nM [3]: 5440 MFI
MFI at 0.032 nM [4]: 292 MFI

B12: T3-Design_5 (IgG1), normal orientation (antibody)
heavy: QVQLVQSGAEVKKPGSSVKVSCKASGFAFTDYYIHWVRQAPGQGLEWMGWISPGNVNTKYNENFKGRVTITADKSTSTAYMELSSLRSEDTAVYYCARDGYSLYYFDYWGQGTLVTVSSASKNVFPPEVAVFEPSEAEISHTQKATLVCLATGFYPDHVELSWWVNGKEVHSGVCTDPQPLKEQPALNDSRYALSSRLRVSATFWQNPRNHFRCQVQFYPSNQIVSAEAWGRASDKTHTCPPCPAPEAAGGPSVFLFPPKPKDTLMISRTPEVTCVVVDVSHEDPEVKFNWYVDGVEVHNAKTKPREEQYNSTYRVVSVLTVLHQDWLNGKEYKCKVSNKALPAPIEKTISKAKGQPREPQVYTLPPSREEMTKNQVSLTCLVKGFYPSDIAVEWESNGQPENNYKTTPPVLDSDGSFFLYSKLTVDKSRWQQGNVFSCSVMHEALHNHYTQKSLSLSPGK
light: B13 light with P113R, D114T, I115V, Q116A, N117A, Q146N, S180N, K191N
notes: as for B3
MFI at 0.4 nM [2]: 1860 MFI
MFI at 5.0 nM [3]: 5390 MFI
MFI at 0.032 nM [4]: 249 MFI

B14: T3-Design_2 (IgG1), normal orientation (antibody)
heavy: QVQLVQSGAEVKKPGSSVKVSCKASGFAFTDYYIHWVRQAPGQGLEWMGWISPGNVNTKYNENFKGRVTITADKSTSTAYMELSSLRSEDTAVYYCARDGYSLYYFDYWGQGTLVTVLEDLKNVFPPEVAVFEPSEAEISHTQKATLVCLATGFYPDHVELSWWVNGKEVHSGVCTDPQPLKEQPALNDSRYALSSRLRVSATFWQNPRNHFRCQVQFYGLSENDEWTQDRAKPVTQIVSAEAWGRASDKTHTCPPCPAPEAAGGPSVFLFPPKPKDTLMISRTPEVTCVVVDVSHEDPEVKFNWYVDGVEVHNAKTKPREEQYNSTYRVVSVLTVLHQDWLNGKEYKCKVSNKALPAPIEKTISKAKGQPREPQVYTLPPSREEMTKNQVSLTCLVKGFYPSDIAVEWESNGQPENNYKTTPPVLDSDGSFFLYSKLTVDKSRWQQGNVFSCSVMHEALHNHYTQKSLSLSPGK
light: B13 light with Q146N, S180N, K191N
notes: as for B3
MFI at 0.4 nM [2]: 2620 MFI
MFI at 5.0 nM [3]: 5830 MFI
MFI at 0.032 nM [4]: 380 MFI

B15: T3-Design_6 (IgG1), normal orientation (antibody)
heavy: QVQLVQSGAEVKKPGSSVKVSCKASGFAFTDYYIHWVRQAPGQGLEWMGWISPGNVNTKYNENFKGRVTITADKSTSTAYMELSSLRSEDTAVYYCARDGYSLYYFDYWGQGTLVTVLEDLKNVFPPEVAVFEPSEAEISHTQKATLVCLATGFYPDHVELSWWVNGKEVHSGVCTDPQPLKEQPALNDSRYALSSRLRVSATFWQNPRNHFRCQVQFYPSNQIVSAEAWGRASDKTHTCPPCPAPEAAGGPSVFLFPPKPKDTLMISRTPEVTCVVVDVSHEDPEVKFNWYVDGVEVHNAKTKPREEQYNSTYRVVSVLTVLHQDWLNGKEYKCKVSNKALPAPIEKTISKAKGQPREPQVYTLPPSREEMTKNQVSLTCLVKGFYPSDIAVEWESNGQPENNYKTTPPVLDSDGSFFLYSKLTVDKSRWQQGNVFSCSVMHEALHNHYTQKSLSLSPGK
light: B13 light with Q146N, S180N, K191N
notes: as for B3
MFI at 0.4 nM [2]: 3910 MFI
MFI at 5.0 nM [3]: 5790 MFI
MFI at 0.032 nM [4]: 613 MFI
